# Reference: the DeepSol protein solubility set
# Assay: soluble on expression in E. coli; label from the status in PepcDB or PDB records
row,Sequence,soluble on expression in E. coli
1,MKTTGAGQLGTQLGKIKTSLRQQIHTGVVSQGQKLPSERELSELFSTTRITIKDALVSLETEGLIYREERRGWYVSPERICYNPLSRSHFHQMIREQHRIAATQLISVRSEMAAGDYAKALDIEQMTPIHIIERLRCIDGRAVLFVENVLKASLFDGILAENLTMSLTGIYREKYGYETMRSRFDVIPTSAPAHVAKALNLAEGQPVLKICRVNYKQDGELMDCELEYWRPDAVMIRIDSVG,not soluble
2,MKTVLAFGDSLTWGADPATGLRHPVEHRWPDVLEAELAGKAKVHPEGLGGRTTCYDDHAGPACRNGARALEVALSCHMPLDLVIIMLGTNDIKPVHGGRAEAAVSGMRRLAQIVETFIYKPREAVPKLLIVAPPPCVAGPGGEPAGGRDIEQS,not soluble
3,MKTVRIETFGCKVNQYESEYMAEQLEKAGYVVLPDGNAAYYIVNSCAVTKEVEKKVKRLIKSIRNRNKNAKIILTGCFAQLSPDEAKNLPVDMVLGIDEKKHIVDHINSLNGKQQVVVSEPGRPVYEKVKGSFEDRTRSYIKVEDGCDNTCTYCAIRLARGTRIRSKPLEIFKEEFAEMVMKGYKEIVITGVNLGKYGKDMGSSLAELLKVIEKVPGDYRVRLSSINVEDVNDEIVKAFKRNPRLCPHLHISVQSGSDDVLKRMGRKYKISDFMRVVDKLRSIDPDFSITTDIIVGFPGETDADFQRTLELVEKVEFSRVHIFRFSPRPGTPASRMEGGVPESKKKERLDVLKEKAKDVSIRYRKRIIGKERKVLAEWYVMKGVLSGYDEYYVKHEFVGNRVGEFHSVRVKSLSEEGVISCRADMVEGKVPARGLEHHHHHH,soluble
4,MKTYYEQDANVGLLQGKTVAVIGYGSQGHAQAQNLRDSGVEVVVGVRPGKSFEVAKADGFEVMSVSEAVRTAQVVQMLLPDEQQAHVYKAEVEENLREGQMLLFSHGFNIHFGQINPPSYVDVAMVAPKSPGHLVRRVFQEGNGVPALVAVHQDATGTALHVALAYAKGVGCTRAGVIETTFQEETETDLFGEQAVLCGGVTALVKAGFETLTEGGYRPEIAYFECLHELKLIVDLMYEGGLTNMRHSISDTAEFGDYVTGSRIVTDETKKEMKRVLTEIQQGEFAKKWILENQAGRPTYNAMKKAEQNHQLEKVGEELREMMSWIHAPKELVKK,not soluble
5,MKVAICDDNPTLTEKINTMLFNYNPNIFETYTYYNPLKLVNQLDQENFDFFILDIEMSEMSGIDLAKKIRERDILSPIVFLTSYKEYMEEVFQVQTFDYLLKPPTEDRLHQVLEKLRQQLEKKRNYFVFSSNKVTYKIPTKDIIYFEKDKRQVLIHTVGEIYKPYMSTNQINEQLDTNFVQVHSSFIINCAYIKELGKNFLLMDSKEKCIEIPISRRFKAAAHKSIVMSMRGKI,not soluble
6,MKVCKFEKMKEEDEIRQVINYILKEHPYVVVVPTLTQLQEWLQDISISWFHEEDSASHTTINNIEEYCCTLADHLITDLPLNTDIKKYIRECIEKMHKLVEDKADLLIDKIIKAEIYRLSGELFACCLRQHGLNARTLDTGTFMQMNLERKPDIPYIQESIRQYINENRDTDIFIAPLSLCKNVYGEIDFMNEKRNDYYATVLASIFEADEIILSTELTNIYANRNCAREQHSLTYTEAEQLINSGVHLIYTDCITLAARSNIVIRLIDTHDLETERLYISSHDTESSVKAIIVQDSVTFVRFTSLNVLPGYLLMGKLLEVINKYQINVISMASSNVSVSMILTASRDTLRIIQRELHKYTEMVVDENMSVIHIIGSLHWERTQLESNIMETIRHIPISLISYGGSDHCFTISVHTADKKQLLNSLSQRFLERLSALEHHHHHH,not soluble
7,MKVDVEVLRNFEERLNPAKPENIKIIGYGEISTVFELPELPGIALKRIPNFKSVEQVKRYIEVYFEYIELLEGAGLRVPDSDATFVERRDGKTVLYIAQKMVGNVGNKVIQTAKADEAEEVFGRVLAEMKKVWDFNAERREEGLEIGIDGQISNWAIMEEIYYFDTSTPMIRKNGIHQLDTEVFLQACPPGIRILLKKIFLQDILDRYFDFRKVVVDMIANLYKEGREDLIPIAINLANEFFKLNGYDFEAITAKEVEKYYKEDAFIWSLYLNLRKVHRFILTKALFGRYEYILPGKIRR,not soluble
8,MKVEELAESISSYAVGILKEEGIEELFPPQAEAVEKVFSGKNLLLAMPTAAGKTLLAEMAMVREAIKGGKSLYVVPLRALAGEKYESFKKWEKIGLRIGISTGDYESRDEHLGDCDIIVTTSEKADSLIRNRASWIKAVSCLVVDEIHLLDSEKRGATLEILVTKMRRMNKALRVIGLSATAPNVTEIAEWLDADYYVSDWRPVPLVEGVLCEGTLELFDGAFSTSRRVKFEELVEECVAENGGVLVFESTRRGAEKTAVKLSAITAKYVENEGLEKAILEENEGEMSRKLAECVRKGAAFHHAGLLNGQRRVVEDAFRRGNIKVVVATPTLAAGVNLPARRVIVRSLYRFDGYSKRIKVSEYKQMAGRAGRPGMDERGEAIIIVGKRDREIAVKRYIFGEPERITSKLGVETHLRFHSLSIICDGYAKTLEELEDFFADTFFFKQNEISLSYELERVVRQLENWGMVVEAAHLAPTKLGSLVSRLYIDPLTGFIFHDVLSRMELSDIGALHLICRTPDMERLTVRKTDSWVEEEAFRLRKELSYYPSDFSVEYDWFLSEVKTALCLKDWIEEKDEDEICAKYGIAPGDLRRIVETAEWLSNAMNRIAEEVGNTSVSGLTERIKHGVKEELLELVRIRHIGRVRARKLYNAGIRNAEDIVRHREKVASLIGRGIAERVVEGISVKSLNPESAAALEHHHHHH,soluble
9,MKVELQISETYEEEKLIVQAPQETEKVQKVIEFAENLDQREKIKGKIDDQVYLVEIGKIQRFYIENRKVLAETASQTYSIDLRLYQVLKLLPTNFIQISQSEIINIDSISHLKLTPNGLVEIFLKNESFTYSSRRYLKTIKEKLEL,not soluble
10,MKVGFFLLKFPLSSETFVLNQITAFIDMGFEVEIVALQKGDTQNTHVAWTKYNLAARTRWLQDEPTGKVAKLRHRASQTLRGIHRKNTWQALNLKRYGAESWNLILSAICGQVATPFRADVFIAHFGPAGVTAAKLRELGVIHGKIATIFHGIDISSREVLNHYTPEYQQLFRRGDLMLPISDLWAGRLQKMGCPREKIAVSRMGVDMTRFSPRPVKAPATPLEIISVARLTEKKGLHVAIEACRQLKEQGVAFRYRILGIGPWERRLRTLIEQYQLEDVVEMPGFKPSHEVKAMLDDADVFLLPSVTGADGDMEGIPVALMEAMAVGIPVVSTLHSGIPELVEADKSGWLVPENDARALAQRLAAFSQLDTDELAPVVKRAREKVEHDFNQQVINRELASLLQAL,not soluble
11,MKVLIGGYTKKTSKGIYELPFIGEDNEAHLEKAENIISVGGPTYFQKDGDLVFTINNAGDEGGISAFKLSDHGSNEIDRHLTPGASPAYIGINKEKKLLYTANYHTAVLSVFQYSNSGKLALVAQTTHKAESLGPRPEQVDGPHPHFFDETPAGNLVSCDLGNDTVDFYRLENNELKHLAQYKNEAGFGDRHIVFSKDGNYFYVVGELSSQINVVKFNENTWEFEDIATYKTIPEDFTEHNGAAALYITNDGKYIYNSNRGHNSITVFKVNDDHTLSLIQRISTFGDFPRDFNWDETQKYVVAANQNTDNATLYLRNGGNGTLTPIQTEIPVPEGTRVLFTKLEHHHHHH,not soluble
12,MKVMLSLFKRESIKGITMKKSTLLNSELSYLVATLGHTDEITICDAGLPIPDEVTRIDLALTHGVPSFLETVRVILSESQIESVIVAQEFAQVSPVLHEALYRELKAEEQLCGKPIAIQYISHEAFKQRTLQSRAVVRTGECTPYANVIFQAGVVF,not soluble
13,MKVYLHFSPQFFANTYLIGNEITKEAVIIDPAKITEKMIHQIEKNEFNLKAVLLTHDLEHPYETGLNTILKIYSPKVYAGSCFSENVTINTLRGDGCIDVAGYSVRYFAIPAHSSYSYMFQIENMVFTGTSLSAGMIGQTSNMYAERTLRNILKTKLMCFEDNLIIMPFYGPPTSIGVERKYNASFFQDLEHHHHHH,not soluble
14,MKVYYECAPCFLRQAREAIDLATDDEELKLRVMENILELLSERFRRGQVSNELGTRMHRLIKDMTGSEDPYLDEKRRCNEIALRFLPTVRDYLECHSDLESHVKVAITGNIIDFGALGLDFDHDRGIQESLRAPLTINHVPLLEDRLREASEVLYLLDNTGEILFDRPLIEKLAGYDVSVKVAVKGEPILNDACMEDALEAGLDEVAEIVTTGTDSVGIVYSDLSDEFRDMLDGTELVIAKGMGNYEGLTEISDGSRDIFCLLNAKCSAIARDLGVARGDNVAVKI,not soluble
15,MKWFRFPIAVIGLVLLSGCATQNESATQWLYPPMAVPLQASIQQEVQIARLSQLLQRTDLEPEIRAKMLFERGNYYDSVGLRDLARLDFTQSLSINPAQPDVFNLLGVYYTEAGEFDAAYESFDSTLELDPSNEYAVRNRAIALYYGERPQLALEEITKHYQQDPQDPFRALWLYIIESDIDPTKARTELLERYQQHDEQWGWVLVGLMLDQLSEEVAFKAIIAGSRENELLAQRLTEAYFYLGKRYQMQGELAHALSLYKLAISFNVYEYVEHRYAFLELGRIYQQAREEQLARAKAEAMTQ,not soluble
16,MKWKEQAIILGTRQYGETSVILEVMTRQHGRYMGVVKGGRSRRMAVLLQPGNFVEAEWWARLDEHLGLFRLEALDLHAARLILFPEALYALQLIVFHLHLLPERDPHPILYDILHLFMQSFDEPFINAELLVRFEMRFLEELGFGLDLSRCAATGRLEKLCYVSPKSGRAVCEEAGHPWREKLLNLPQFLVQRTVRPVDFSDIKNGFILTGFFLMRHVWEPRNIKQPSVRISLIQLFEQRFRMQASFVDLKTINRM,not soluble
17,MKYDLIIIGSGSVGAAAGYYATRAGLKVLMTDAHMPPHQQGSHHGDTRLIRHAYGEGEKYVPLVLRAQTLWDELSTHNEEPIFVRSGVVNLGPADSAFLANVARSAQQWQLNVERLDATALMTRWPEIRVPDNYIGLFEADSGFLRSELAITTWLRLAREAGCAQLFNSPVSHIHHDDNGVTIETSEGCYHASKALISAGTWVKALVPELPVQPVRKVFAWFKADGRYSTKNRFPAFTGEMPNGDQYYGFPAENDELKIGKHNGGQLIQAPEERKPFAAVASDGAEAFPFLRNVLPGIGGCLHGAACTYDNSPDEDFIIDTLPGHENTLVITGLSGHGFKFAPVLGEIAADFALGKTPSFDLTPFRLSRFSQ,not soluble
18,MKYIINHSNDTAFNIALEEYAFKHLLDEDQIFLLWINKPSIIVGRHQNTIEEINRDYVRENGIEVVRRISGGGAVYHDLNNLNYTIISKEDENKAFDFKSFSTPVINTLAQLGVKAEFTGRNDLEIDGKKFCGNAQAYINGRIMHHGCLLFDVDLSVLANALKVSKDKFESKGVKSVRARVTNIINELPKKITVEKFRDLLLEYMKKEYPEMTEYVFSEEELAEINRIKDTKFGTWDWNYGKSPEFNVRRGIKFTSGKVEVFANVTESKIQDIKIYGDFFGIEDVAAVEDVLRGVKYEREDVLKALKTIDITRYFAGISREEIAEAVVG,not soluble
19,MKYKHLILSLSLIMLGPLAHAEEIGSVDTVFKMIGPDHKIVVEAFDDPDVKNVTCYVSRAKTGGIKGGLGLAEDTSDAAISCQQVGPIELSDRIKNGKAQGEVVFKKRTSLVFKSLQVVRFYDAKRNALAYLAYSDKVVEGSPKNAISAVPVMPWRQ,soluble
20,MKYKIFASTTPQTEPVLQKLKQVLKGCEAVEKGFDYLFVLGGDGFFVSTVANYNCHNCRVVGINTGHLGFYTSFNEKDLDDNFLQKLQQCHFQRISLLEVSVNGQQHLVLNELAVYTNTAYPINIFIDGEAWEFYRGSGLLIGPRTGSTALAKSAKGAVIFPGIDVLQIIEMNPLLHPNQVTIQSPIILPKETQVEFVVKKAFNPQQFPTFYCDGRKLELPNADTTLALKLVQSTPMFNISLKTQDFINKLKSTFIKQSLEHHHHHH,not soluble
